Source: patent publication KR20160093502A (dated 2016)

B1: SEQ ID NO 28 (scFv)
scFv: EVQLLESGGGLVQPGGSLRLSCAASGFTFSNYAMSWVRQAPGKGLEWVSGIYHGGGNKYYADSVKGRFTISRDNSKNTLYLQMNSLRAEDTAVYYCARTRTLFDYWGQGTLVTVSSGGGGSGGGGSGGGGSQSVLTQPPSASGTPGQRVTISCTGSSSNIGNNAVSWYQQLPGTAPKLLIYANSHRPSGVPDRFSGSKSGTSASLAISGLRSEDEADYYCGTWDASLSGYVFGGGTKLTVL
B2: SEQ ID NO 42 (scFv)
scFv: EVQLLESGGGLVQPGGSLRLSCAVSGFTFSSYYMSWVRQAPGKGLEWVSLISPGSGSIYYADSVKGRFTISRDNSKNTLYLQMNSLRAEDTAVYYCARTGWLFDYWGQGTLVTVNSGGGGSGGGGSGGGGSQSVLTQPPSASGTPGQRVTISCSGSSSNIGNNAVNWYQQLPGTAPKLLIYSNSHRPSGVPDRFSGSKSGTSASLAISGLRSEDEADYYCGSWDASLNGYVFGGGTKLTVL

Biological target: T1, EPRS (glutamyl-prolyl tRNA synthetase), human 세포에서 원래 발현된 EPRS (Hela cell lysate) (human, UniProt P07814 1-1512)
T1 construct: Endogenous protein in 50 ug HeLa lysate, denatured on a western blot; also called endogenous EPRS in HeLa cell lysate
Experiment: western blot on HeLa cell lysate (clones from panning on EPRS WHEP domain antigen)

T1 sequence (P07814 whole entry): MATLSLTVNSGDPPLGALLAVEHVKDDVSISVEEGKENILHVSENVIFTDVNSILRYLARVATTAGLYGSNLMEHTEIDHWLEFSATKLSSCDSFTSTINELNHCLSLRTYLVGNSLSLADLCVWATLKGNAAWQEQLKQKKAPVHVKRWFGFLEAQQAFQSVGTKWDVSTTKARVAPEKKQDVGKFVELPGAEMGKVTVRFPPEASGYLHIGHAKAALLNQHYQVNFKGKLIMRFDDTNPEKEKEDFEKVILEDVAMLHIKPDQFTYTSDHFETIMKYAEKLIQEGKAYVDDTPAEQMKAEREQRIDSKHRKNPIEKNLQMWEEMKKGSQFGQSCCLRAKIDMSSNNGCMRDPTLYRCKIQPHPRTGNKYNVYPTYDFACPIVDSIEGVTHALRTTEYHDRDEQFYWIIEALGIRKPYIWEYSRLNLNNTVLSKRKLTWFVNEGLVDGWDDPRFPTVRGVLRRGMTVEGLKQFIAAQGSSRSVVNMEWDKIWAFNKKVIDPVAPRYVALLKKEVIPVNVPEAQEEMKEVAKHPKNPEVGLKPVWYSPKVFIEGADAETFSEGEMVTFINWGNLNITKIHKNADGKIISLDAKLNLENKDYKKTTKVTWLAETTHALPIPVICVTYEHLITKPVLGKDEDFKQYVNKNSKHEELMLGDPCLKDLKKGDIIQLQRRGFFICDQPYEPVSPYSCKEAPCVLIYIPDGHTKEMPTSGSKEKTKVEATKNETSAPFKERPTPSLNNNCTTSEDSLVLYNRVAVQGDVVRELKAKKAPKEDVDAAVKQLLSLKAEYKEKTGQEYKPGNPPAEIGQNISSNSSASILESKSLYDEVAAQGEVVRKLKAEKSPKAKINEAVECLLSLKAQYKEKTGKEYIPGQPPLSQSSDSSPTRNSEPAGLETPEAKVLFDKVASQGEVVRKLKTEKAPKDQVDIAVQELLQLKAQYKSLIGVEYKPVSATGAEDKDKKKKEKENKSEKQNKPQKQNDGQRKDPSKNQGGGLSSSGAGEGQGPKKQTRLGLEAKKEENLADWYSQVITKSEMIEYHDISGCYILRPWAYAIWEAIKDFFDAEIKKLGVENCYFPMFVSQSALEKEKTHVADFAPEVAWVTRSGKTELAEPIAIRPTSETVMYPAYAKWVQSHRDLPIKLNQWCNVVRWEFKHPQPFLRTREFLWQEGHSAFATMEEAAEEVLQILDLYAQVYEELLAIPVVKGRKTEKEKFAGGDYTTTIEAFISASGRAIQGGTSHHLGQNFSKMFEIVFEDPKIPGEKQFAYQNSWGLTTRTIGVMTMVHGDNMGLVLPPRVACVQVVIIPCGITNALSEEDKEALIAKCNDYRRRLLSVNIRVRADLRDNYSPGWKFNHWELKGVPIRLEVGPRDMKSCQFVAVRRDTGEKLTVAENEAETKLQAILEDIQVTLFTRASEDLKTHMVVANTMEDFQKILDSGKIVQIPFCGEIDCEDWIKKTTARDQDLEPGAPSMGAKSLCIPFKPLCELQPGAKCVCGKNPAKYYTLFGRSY

Binder | binding result
B1 | binds
B2 | binds
